This data set is described as follows: soluble on expression in E. coli; label from the status in PepcDB or PDB records.
Regarding “MLKQSMHSFVLLYPNVLLEGWNVEKVSERYEGEKWGTFWFQVVTPTGMFRVKEFFLDIMEPVFPDSCISQAKGDCFQYKGLVYWKGINYKGKESYVTSIWKTQVEISVDHGYVNQDEMERFLFELQPVNMELGKTILHTSFHLLSFQAKRSEMGEIGRCREWNAPDDVSYVNLLIHEKLNWKLESVGFGNDETQYVYWDEVNKLYALWVCRHKNKAYYPISSWTMNYGPKQIINGLEFYSHPNRGTVVYEDLGNEQIAYVFRGNPCTNFEQVKELFACL”, the “soluble on expression in E. coli” value is given as “not soluble”.

On to “MLKSEDADYEKAMKDKVGTGPQEYLKQLSDSLVKNQSAASVEVVSGATHSSDAFINYANQLIQAAQKADTTTISINNLAKMEDGTYKLEEQNYAHGYRVVFSMDVKDGKITKSDYNYVDKDGKLKSDDADYEKNMKAKSGTGPKEYIPALNKSLVEKQDVAAVDTVSGATNSSNQFKIYAAQLQNAAQNGNTDTIKVYNLVEAELEHHHHHH”, for which the “soluble on expression in E. coli” value is on record as “soluble”.

With “MLKTLAVANYRSINKLVIPLGRLNLVTGANGSGKSNLYRALRLLAETAQGGVVNALAKEGGLESTYWAGPEQISRRMSQGEVPIQGGPRKAARRLQLGFAGEDFGYAISLGLPDSSGHFMLPGHSSPIASRFTLDPWIKRESIWGGPLYRSASALVDRQGPMIRARAGRQWEVLAQHTSSGDSLFDRVGNLSSSPEVLHLREQIRGWRFYDHLRTDSQAPARRPQLGTRTPVLHHDGRDLAAALQTIIEVGDQQALHETISDAFPESRLEIDAVPGGLFGVQFYQEGLLRPLSAAELSDGTLRYLLLVAALLTPRPPTLMVLNEPETSLHPDLLPALARLIIRASQQCQVWVVSHARRLIAALQQDPECNCIVLEKQLGQTGIVGQRMLDEPAWNWPDLEHHHHHH”, the “soluble on expression in E. coli” value is given as “not soluble”.

In the case of “MLKYNIRGENIEVTEPIRDYVEKKIDKLERYFTETPDANVHVNLKVYSDKNAKVEVTIPLPNLVLRAEETSGDLYASIDLIVDKLERQIRKHKTKVNRKFRDKGAERDYFAYSDVNGSTPPEENEGDFDLEIVRTKQFSLKPMDSEEAVLQMNLLGHSFYVYTDAETNGTNIVYSRKDGKYGLIETNLEHHHHHH”, the “soluble on expression in E. coli” value is on record as “soluble”.

“MLLAYIDEIGSTGAFIHPNHNRFSDSPAFGYGGFIIPEESAREFGSYFAERKKIFFRNEIPNNIDPGRWEKKGSDLLFALAINERPQNLRLLGSLISKLRKLDGHLFYYAEEKPIGTPKATNCGATEFRDREETAMRETLNRIARHADYEDSRVLVMMDQINEKSRIQRLPAMYAHILGRASEHQEMRRIVEPPMHIDSQLSTNIQFADWICSLAKRAIEYQLVEDSRYSWVSTAEALTPARGSFTYESKLRLYHRAIDDLNHSSILRPTRPLFNSKINQTLDEENRRKLEKVRAATIKEANN”: the “soluble on expression in E. coli” value was “not soluble”.

On to “MLLDEKALVTLQKLGLTYYGARVYITLVSLGSSDATELSIESEVPRTKIYNVLKRLEAEKWIAVEHTRPIIYTAKYPKDILKEKRVAFNSEINEVSNQLSEVYDKVIDNEVPKVWLLRGMNNITAKTINMIKRAKRDITLLGALYSENEIEQLKEELSYATKKGLHVRVISRQSIKLNNGELDIIKNLSSVIPQIKIGGPEFSKFVIIDDKELLILFSKVEDNILDIDSTIAIWIPNVSIASYQASIFNGIWNGYCQVDRC”, for which the “soluble on expression in E. coli” value is on record as “not soluble”.

For the sequence “MLLEISIYCRGGQGGVTAARILAATAMLQGYYSQSMPQFGPERRGAEVRAFLRISDERIRRKCPITYPDVVILFDLKLSFNGNPETVVVNCNGSSFTGHGNVFALDATEITRRYGLVNAGWPILGPAMAGTAAKALDLDPRCLLEAIRLELGDKADRSVKAAEEAYRVVECV”, the “soluble on expression in E. coli” value was “not soluble”.

For “MLLSVPLLLGLLGLAAADPAIYFKEQFLDGDAWTNRWVESKHKSDFGKFVLSSGKFYGDLEKDKGLQTSQDARFYALSAKFEPFSNKGQTLVVQFTVKHEQNIDCGGGYVKLFPSGLDQKDMHGDSEYNIMFGPDICGPGTKKVHVIFNYKGKNVLINKDIRCKDDEFTHLYTLIVRPDNTYEVKIDNSQVESGSLEDDWDFLPPKKIKDPDAAKPEDWDERAKIDDPTDSKPEDWDKPEHIPDPDAKKPEDWDEEMDGEWEPPVIQNPEYKGEWKPRQIDNPDYKGTWIHPEIDNPEYSPDANIYAYDSFAVLGLDLWQVKSGTIFDNFLITNDEAYAEEFGNETWGVTKAAEKQMKDKQDEEQRLKEEEEDKKRKEEEEAEDKEDDDDRDEDEDEEDEKEEDEEESPGQAKDEL”, the “soluble on expression in E. coli” value was “soluble”.
